Reference: patent publication US20200270627A1 (COMMONWEALTH SCIENTIFIC AND INDUSTRIAL RESEARCH ORGANISATION, published 2020)
Values belong to the binder of their own block, whether it stands above or below them.

Biological target: T1, RGA4 1-171:CFP (rice, UniProt F7J0M4 1-171)
T1 construct: not shown: C-terminal CFP tag
T1 sequence (looked up): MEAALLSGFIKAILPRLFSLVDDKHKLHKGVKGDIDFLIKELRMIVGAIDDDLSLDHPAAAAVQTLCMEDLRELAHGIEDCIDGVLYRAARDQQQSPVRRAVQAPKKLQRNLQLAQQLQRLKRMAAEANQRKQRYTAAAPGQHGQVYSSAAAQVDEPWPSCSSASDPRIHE
Assay: co-immunoprecipitation with anti-GFP antibodies from N. benthamiana leaf cells, anti-HA immunoblot

binding result: no binding
B1: Sr33 1-160:HA (other)
chain: MDIVTGAIAKLIPKLGELLVGEYKLHKGVKKNIEDLLKELKTMNAALIKIGEVPPDQLDSQDKLWADEVRELSYVIEDAVDKFLVRVHGVEPDDNTNGFKGLMKRTTKLLKKVVDKHGIAHAIKDIKKELQEVAARRDRNKFDGIASIPTEAIDPRLRAL
notes: also called full CC domain of Sr33 fused to a C-terminal HA tag; not shown: C-terminal HA tag (vector pBIN19-35S::GTW:3HA)

binding result: no binding
B2: Sr50 1-163:HA (other)
chain: MNIVTGAMGSLIPKLGELLMDEYKLHKRIKKDVEFLKKELESMHAALIKVGEVPRDQLDRQVKLWADEVRELSYNMEDVVDKFLVRVDGDGIQQPHDNSGRFKELKNKMIGLFKKGRNHHRIADAIKEIKEQLQEVAARRDRNKVAVPNPMEPITIDPCLRAL
notes: Transiently expressed in N. benthamiana leaf cells under the 35S promoter; also called full CC domain of Sr50 fused to a C-terminal HA tag; not shown: C-terminal HA tag (vector pBIN19-35S::GTW:3HA)
